Assay [1] deals with T1, O5-AA.
T1 chain: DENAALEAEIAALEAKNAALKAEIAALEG
As to the kind of experiment: two-hybrid library CCmax.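 Further: natural log of median RNA to DNA barcode read ratio; higher means stronger binding.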 To be noted: mean of both orientations.

Assay [2] addresses T2, O6-AA.
T2 chain: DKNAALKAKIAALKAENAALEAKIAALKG
As to the kind of experiment: two-hybrid library CCmax.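 Further: natural log of median RNA to DNA barcode read ratio; higher means stronger binding.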 Conditions: mean of both orientations.

In assay [3] the target is T3, O7-AA.
T3 chain: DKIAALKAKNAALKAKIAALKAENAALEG
As to the kind of experiment: two-hybrid library CCmax.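 Further: natural log of median RNA to DNA barcode read ratio; higher means stronger binding.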 Conditions: mean of both orientations.

For assay [4], the target named is T4, O3-AA.
T4 chain: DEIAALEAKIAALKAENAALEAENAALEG
As to the kind of experiment: two-hybrid library CCmax.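 Further: natural log of median RNA to DNA barcode read ratio; higher means stronger binding.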

Assay [5] has as its target T5, P10-AA.
T5 chain: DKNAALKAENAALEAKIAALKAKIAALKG
As to the kind of experiment: two-hybrid library CCmax. Conditions: mean of both orientations.

For assay [6], the target named is T6, O8-AA.
T6 chain: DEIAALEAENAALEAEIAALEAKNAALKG
Put plainly: two-hybrid library CCmax. Conditions: mean of both orientations.

Assay [7] has as its target T7, P9-AA.
T7 chain: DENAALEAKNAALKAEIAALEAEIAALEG
Put plainly: two-hybrid library CCmax. Conditions: mean of both orientations.

Assay [8] has as its target T8, O4-AA.
T8 chain: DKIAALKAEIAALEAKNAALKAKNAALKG
Put plainly: two-hybrid library CCmax. To be noted: mean of both orientations.

Assay [9] deals with T9, 4H3590-AA.
T9 chain: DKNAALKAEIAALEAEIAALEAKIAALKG
As to the kind of experiment: two-hybrid library CCmax. To be noted: mean of both orientations.

Assay [10] deals with T10, 4H384-AA.
T10 chain: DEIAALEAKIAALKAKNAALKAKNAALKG
As to the kind of experiment: two-hybrid library CCmax. To be noted: mean of both orientations.

Assay [11] deals with T11, 4H2888-AA.
T11 chain: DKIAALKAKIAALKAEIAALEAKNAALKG
As to the kind of experiment: two-hybrid library CCmax.

Assay [12] concerns the target T12, 4H4038-AA.
T12 chain: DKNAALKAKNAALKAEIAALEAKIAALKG
As to the kind of experiment: two-hybrid library CCmax. Conditions: mean of both orientations.

For assay [13], the target named is T13, 4H43-AA.
T13 chain: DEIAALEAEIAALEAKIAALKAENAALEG
Put plainly: two-hybrid library CCmax. Conditions: mean of both orientations.

Assay [14] concerns the target T14, 4H3625-AA.
T14 chain: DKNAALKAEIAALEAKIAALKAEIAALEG
Put plainly: two-hybrid library CCmax. Conditions: mean of both orientations.

In assay [15] the target is T15, 4H_BCR.
T15 chain: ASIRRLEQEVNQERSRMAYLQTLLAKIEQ
Put plainly: two-hybrid library CCmax. To be noted: mean of both orientations.

Assay [16] addresses T16, 4H510-AA.
T16 chain: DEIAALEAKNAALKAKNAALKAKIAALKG
As to the kind of experiment: two-hybrid library CCmax. Conditions: mean of both orientations.

The target of assay [17] is T17, 4H337-AA.
T17 chain: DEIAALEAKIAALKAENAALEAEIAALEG
Put plainly: two-hybrid library CCmax. To be noted: mean of both orientations.

For assay [18], the target named is 4H_GCN4. As to the kind of experiment: two-hybrid library CCmax.
Chain of 4H_GCN4 (chain, as listed by the source): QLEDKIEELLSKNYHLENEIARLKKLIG
Assay [19] concerns the target T18, 4H3049-AA.
T18 chain: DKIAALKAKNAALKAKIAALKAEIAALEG
Put plainly: two-hybrid library CCmax. To be noted: mean of both orientations.

The target of assay [20] is T19, O11-AA.
T19 chain: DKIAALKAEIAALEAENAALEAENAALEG
Put plainly: two-hybrid library CCmax. Conditions: mean of both orientations.

Assay [21] has as its target T20, 4H3905-AA.
T20 chain: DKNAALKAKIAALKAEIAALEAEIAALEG
As to the kind of experiment: two-hybrid library CCmax. To be noted: mean of both orientations.

The target in assay [22] is T21, 4H3587-AA.
T21 chain: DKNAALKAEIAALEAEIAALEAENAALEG
As to the kind of experiment: two-hybrid library CCmax. To be noted: mean of both orientations.

In assay [23] the target is T22, 4H_APH.
T22 chain: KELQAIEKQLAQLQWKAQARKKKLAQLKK
As to the kind of experiment: two-hybrid library CCmax. To be noted: mean of both orientations.

Assay [24] has as its target T23, 4H451-AA.
T23 chain: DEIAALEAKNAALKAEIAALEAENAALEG
Put plainly: two-hybrid library CCmax. Conditions: mean of both orientations.

Assay [25] concerns the target GCN2_T. As to the kind of experiment: two-hybrid library CCmax. Conditions: mean of both orientations.
Assay [26] addresses T24, O13-AA.
T24 chain: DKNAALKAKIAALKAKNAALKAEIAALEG
Put plainly: two-hybrid library CCmax. To be noted: mean of both orientations.

For assay [27], the target named is T25, O14-AA.
T25 chain: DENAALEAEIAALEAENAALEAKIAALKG
Put plainly: two-hybrid library CCmax. To be noted: mean of both orientations.

Assay [28] has as its target T26, P9mS.
T26 chain: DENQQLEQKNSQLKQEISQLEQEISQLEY
Put plainly: two-hybrid library CCNG1.

Assay [29] addresses T27, P9A-bN.
T27 chain: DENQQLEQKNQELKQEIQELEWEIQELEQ
Put plainly: two-hybrid library CCNG1.

Assay [30] deals with T28, P8A-bN.
T28 chain: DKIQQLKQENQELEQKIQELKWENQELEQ
Put plainly: two-hybrid library CCNG1.

Take DEIAALEAKIAALKAENAALEAENAALEG [O3-AA]: the interaction score in [1] was -1.22; in assay [2], -0.902; in [3], -1.4; in [4], -0.811; in assay [5], -1.06; in assay [6], -1.37. The interaction score is -0.88 in assay [7] and 1.99 in [8].

As for DKIAALKAKIAALKAEIAALEAKNAALKG [4H2888-AA], the interaction score was 2.23 in assay [9]; -0.941 in assay [10]; 1.12 in [11]; 0.103 in assay [12]; 1.89 in assay [13]; 1.63 in assay [14]. The interaction score in [15] was -2.06; in assay [16], -1.56; in assay [17], 1.21; in assay [18], -1.53; in assay [19], -0.982; in assay [20] it was 0.766. For the same molecule, the interaction score in [21] was 1.91; in assay [22], 1.25; in assay [23], -2.17; in assay [24], -0.857; in assay [25], -1.24; in assay [26], -0.966. Besides, the interaction score in assay [27] is 1.71.

Take DENQQLEQKNSQLKQEISQLEQEISQLEY [P9mS]: the interaction score in [28] was -1.32.

In the case of DKIQQLKQENQELEQKIQELKWENQELEQ [P8A-bN], the interaction score is -1.47 in assay [29] and -1.84 in assay [30].

The values above are taken from paper PMC10397247.
